Test results from publication PMC9977683, “IFNγ binding to extracellular matrix prevents fatal systemic toxicity” (Nature Immunology, 2023).

T1: IFNγR1 extracellular domain (amino acids 26–254), recombinant (mouse, UniProt P15261 26-254)
T1 construct: mouse interferon-gamma receptor 1, extracellular domain, amino acids 26-254, cloned from mouse cDNA into pET26b-N-His6-SUMO; Immobilised on the chip through anti-His5; source: E. coli (T7 express, with pRARE plasmid), periplasmic expression, purified (osmotic shock, HisTrap, gel filtration); not shown: His6-SUMO, N-terminal, cleaved; His6, C-terminal, kept
T1 sequence (looked up): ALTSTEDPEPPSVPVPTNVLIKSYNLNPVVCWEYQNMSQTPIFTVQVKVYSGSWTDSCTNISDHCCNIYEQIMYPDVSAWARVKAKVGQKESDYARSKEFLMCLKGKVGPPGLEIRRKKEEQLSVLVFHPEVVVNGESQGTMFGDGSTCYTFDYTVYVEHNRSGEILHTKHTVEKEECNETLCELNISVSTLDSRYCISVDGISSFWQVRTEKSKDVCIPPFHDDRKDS


Assays:
[1] = target: IFNγ receptor (Homo sapiens) (UniProt P15260); settings: cited from earlier work
[2] = target: T1, IFNγR1 extracellular domain (amino …); assay: SPR; Biacore T200, CM4 chip coated with anti-His5 onto which recombinant IFNγR1 was immobilised; IFNγ variants injected over 180 s at 0, 1, 2.5, 5, 10, 25 and 50 nM; settings: both partners purified

Sequence of IFNγ (P01579 24-161): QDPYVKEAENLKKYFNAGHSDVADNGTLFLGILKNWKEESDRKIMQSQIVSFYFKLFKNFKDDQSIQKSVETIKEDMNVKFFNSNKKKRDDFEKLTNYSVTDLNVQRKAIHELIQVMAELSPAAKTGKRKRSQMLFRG
Sequence of IFNγ receptor (Homo sapiens) (P15260 18-245): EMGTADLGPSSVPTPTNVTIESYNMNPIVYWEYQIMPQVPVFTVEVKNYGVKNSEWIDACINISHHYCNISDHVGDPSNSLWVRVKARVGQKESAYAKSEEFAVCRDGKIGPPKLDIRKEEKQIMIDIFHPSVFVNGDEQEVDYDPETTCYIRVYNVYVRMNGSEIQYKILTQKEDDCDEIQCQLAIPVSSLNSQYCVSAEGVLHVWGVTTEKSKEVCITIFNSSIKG

binding result [2]	Molecule	Kd [1] [pM]
	IFNγ (from UniProt P01579)	500
binds	Interferon-γ (IFNγ), recombinant (ligand, mouse, UniProt P01580 23-155, looked up, mouse interferon-gamma, cDNA without the leader peptide, codon optimized, in pET28-N-His6-SUMO; also called IFNγ^wt; source: E. coli (T7 express, with pRARE plasmid), purified (HisTrap, size-exclusion chromatography); not shown: His6-SUMO, N-terminal, cleaved) HGTVIESLESLNNYFNSSGIDVEEKSLFLDIWRNWQKDGDMKILQSQIISFYLRLFEVLKDNQAISNNISVIESHLITTFFSNSKAKKDAFMSIAKFEVNNPQVQRQAFNELIRVVHQLLPESSLRKRKRSRC	
binds	IFNγ–green fluorescent protein fusion protein (IFNγ–GFP), recombinant (ligand, mouse, UniProt P01580 23-155, looked up, mouse interferon-gamma, cDNA without the leader peptide, with GFP fused to the C-terminus; source: E. coli (T7 express, with pRARE plasmid), purified (HisTrap, Superdex 200); not shown: His6-SUMO, N-terminal, cleaved; GFP, C-terminal, kept) HGTVIESLESLNNYFNSSGIDVEEKSLFLDIWRNWQKDGDMKILQSQIISFYLRLFEVLKDNQAISNNISVIESHLITTFFSNSKAKKDAFMSIAKFEVNNPQVQRQAFNELIRVVHQLLPESSLRKRKRSRC	
